# From patent US6893638
# Like-named read-outs stand apart in the source and are kept apart here.
# T1: membrane associated human B7.1 on cells (human, UniProt P33681 35-288)
# T1 sequence (looked up): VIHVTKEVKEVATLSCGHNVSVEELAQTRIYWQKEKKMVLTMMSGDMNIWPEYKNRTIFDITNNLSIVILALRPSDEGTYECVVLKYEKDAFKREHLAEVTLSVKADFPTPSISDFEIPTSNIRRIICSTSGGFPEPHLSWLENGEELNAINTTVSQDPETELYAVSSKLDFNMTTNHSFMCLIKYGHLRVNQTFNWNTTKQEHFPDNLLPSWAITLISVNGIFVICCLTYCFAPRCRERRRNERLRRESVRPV
# T2: B7.1/Ig fusion protein (human, UniProt P33681 35-242, 125I radiolabel where used as tracer)
# T2 construct: Secreted from CHO cells; also called B7-Ig; not shown: human immunoglobulin CH2 and CH3 domains of the NEOSPLA cassette vector; isotype
# T2 sequence (looked up): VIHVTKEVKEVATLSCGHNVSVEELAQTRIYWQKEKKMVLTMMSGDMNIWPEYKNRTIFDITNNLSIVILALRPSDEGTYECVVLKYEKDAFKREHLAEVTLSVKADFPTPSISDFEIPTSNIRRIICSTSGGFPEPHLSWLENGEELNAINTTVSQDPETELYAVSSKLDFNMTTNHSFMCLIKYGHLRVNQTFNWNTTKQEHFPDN
# B1: monkey monoclonal anti-B7.1 antibody 16C10 (antibody, V domains shown)
# VH: QVQLQESGPGLVKPSETLSLTCAVSGGSISGGYGWGWIRQPPGKGLEWIGSFYSSSGNTYYNPSLKSQVTISTDTSKNQFSLKLNSMTAADTAVYYCVRDRLFSVVGMVYNNWFDVWGPGVLVTVSS
# VL: ESVLTQPPSVSGAPGQKVTISCTGSTSNIGGYDLHWYQQLPGTAPKLLIYDINKRPSGISDRFSGSKSGTAASLAITGLQTEDEADYYCQSYDSSLNAQVFGGGTRLTVL
# notes: Tested as the original cynomolgus monkey Ig from a heterohybridoma
# B2: monkey monoclonal anti-B7.1 antibody 7C10 (antibody, V domains shown)
# VH: QVKLQQWGEGLLQPSETLSRTCVVSGGSISGYYYWTWIRQTPGRGLEWIGHIYGNGATTNYNPSLKSRVTISKDTSKNQFFLNLNSVTDADTAVYYCARGPRPDCTTICYGGWVDVWGPGDLVTVSS
# VL: AYELTQPPSVSVSPGQTARITCGGDNSRNEYVHWYQQKPARAPILVIYDDSDRPSGIPERFSGSKSGNTATLTINGVEAGDEADYYCQVWDRASDHPVFGGGTRVTVL
# notes: Tested as the original cynomolgus monkey Ig from a heterohybridoma; A leader may be included in the entries; also called 7C10 monkey Ig
# B3: monkey monoclonal anti-B7.1 antibody 7B6 (antibody, V domains shown)
# VH: EVQLVESGGGLVQPGGSLRVSCAVSGFTFSDHYMYWFRQAPGKGPEWVGFIRNKPNGGTTEYAASVKDRFTISRDDSKSIAYLQMSSLKIEDTAVYYCTTSYISHCRGGVCYGGYFEFWGQGALVTVSS
# VL: EVVMTQSPLSLPITPGEPASISCRSSQSLKHSNGDTFLSWYQQKPGQPPRLLIYKVSNRDSGVPDRFSGSGAGTDFTLKISAVEAEDVGVYFCGQGTRTPPTFGGGTKVEIK
# notes: as for B1
# Assays:
# [1] = molecular target: T1, membrane associated human B7.1 on cells; assay: cell-based or functional assay
# B7.1/Ig fusion protein [2] = molecular target: T2, B7.1/Ig fusion protein; assay: Scatchard analysis, binding to B7-Ig coated plates
# B7.1/Ig fusion protein [3] = molecular target: T2, B7.1/Ig fusion protein; assay: Scatchard analysis, binding to B7-Ig coated plates; remark: listed apart in the source
Binder,inhibit IL-2 production in mixed lymphocyte reaction [1] [µg/mL],Kd (B7.1/Ig fusion protein [2]) [nM],Kd (B7.1/Ig fusion protein [3]) [nM]
B1,0.1,~8.1,~8.1
B2,5,~6.2,~6.2
B3,5,~10.7,~10.7
